Test results: paper PMC11122685, “An interaction network in the polymerase active site is a prerequisite for Watson-Crick base pairing in Pol γ”

Target: Pol gamma A R853A exo-;Pol gamma B deltaI4 (human;human?, UniProt P54098;Q9UHN1 1-1239;1-485, D198A;E200A;R853A|del136-182)
Assay: X-ray crystal structure (3.4 A); dCTP (2 mM), 10 mM CaCl2; ternary complex, dCTP not paired with template dG; Crystal: 63.5 uM protein, 114.3 uM DNA, 10 mM CaCl2, 2 mM dCTP; well 100 mM MES pH 6.0, 150 mM NaCl, 10 mM CaCl2, 50 mM BME, 3% PEG-8000, 1-8% sucrose, 2% Jeffa
Settings: protein: recombinant;recombinant; (Ni-NTA purified); copies: 1;2; 5' overhang 4 nt (template strand), recessed primer 3' end

Chain of Pol gamma A R853A exo-;Pol gamma B deltaI4 (P54098 whole entry D198A/E200A/R853A, chain 1 of 2): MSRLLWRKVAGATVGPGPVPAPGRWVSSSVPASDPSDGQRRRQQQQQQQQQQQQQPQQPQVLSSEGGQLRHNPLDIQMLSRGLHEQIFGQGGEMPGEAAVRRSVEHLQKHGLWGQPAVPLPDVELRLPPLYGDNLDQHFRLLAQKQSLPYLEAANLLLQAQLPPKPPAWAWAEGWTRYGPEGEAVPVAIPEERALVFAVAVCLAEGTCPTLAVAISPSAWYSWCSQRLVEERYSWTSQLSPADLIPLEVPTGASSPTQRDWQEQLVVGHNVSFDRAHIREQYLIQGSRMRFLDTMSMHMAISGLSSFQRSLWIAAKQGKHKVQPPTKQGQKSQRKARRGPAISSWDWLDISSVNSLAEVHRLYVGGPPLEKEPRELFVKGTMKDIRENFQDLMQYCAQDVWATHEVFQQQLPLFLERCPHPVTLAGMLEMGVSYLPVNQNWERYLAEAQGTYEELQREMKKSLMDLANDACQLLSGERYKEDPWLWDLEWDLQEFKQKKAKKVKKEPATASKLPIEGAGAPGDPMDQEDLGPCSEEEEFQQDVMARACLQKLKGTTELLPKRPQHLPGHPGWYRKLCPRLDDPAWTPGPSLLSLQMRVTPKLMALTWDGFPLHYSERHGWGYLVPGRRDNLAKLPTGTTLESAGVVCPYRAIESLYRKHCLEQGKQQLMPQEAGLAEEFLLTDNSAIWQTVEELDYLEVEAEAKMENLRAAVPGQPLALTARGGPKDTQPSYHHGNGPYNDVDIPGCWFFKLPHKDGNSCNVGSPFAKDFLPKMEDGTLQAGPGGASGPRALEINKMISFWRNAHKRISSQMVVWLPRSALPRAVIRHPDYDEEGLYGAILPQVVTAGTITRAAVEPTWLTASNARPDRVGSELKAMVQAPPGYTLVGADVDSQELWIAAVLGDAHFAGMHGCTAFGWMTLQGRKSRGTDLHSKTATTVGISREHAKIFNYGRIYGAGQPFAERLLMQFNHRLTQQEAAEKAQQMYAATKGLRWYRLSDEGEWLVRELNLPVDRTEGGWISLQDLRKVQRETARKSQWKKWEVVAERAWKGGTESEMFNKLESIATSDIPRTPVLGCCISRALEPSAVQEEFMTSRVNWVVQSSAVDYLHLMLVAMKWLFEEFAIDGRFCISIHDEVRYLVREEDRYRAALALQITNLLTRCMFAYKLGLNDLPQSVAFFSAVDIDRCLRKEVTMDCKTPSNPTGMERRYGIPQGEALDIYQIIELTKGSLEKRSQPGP
Chain of Pol gamma A R853A exo-;Pol gamma B deltaI4 (Q9UHN1 other isoform, or with tags, fused parts or gaps D198A;E200A;R853A|del136-182 | R853A R853A, chain 2 of 2): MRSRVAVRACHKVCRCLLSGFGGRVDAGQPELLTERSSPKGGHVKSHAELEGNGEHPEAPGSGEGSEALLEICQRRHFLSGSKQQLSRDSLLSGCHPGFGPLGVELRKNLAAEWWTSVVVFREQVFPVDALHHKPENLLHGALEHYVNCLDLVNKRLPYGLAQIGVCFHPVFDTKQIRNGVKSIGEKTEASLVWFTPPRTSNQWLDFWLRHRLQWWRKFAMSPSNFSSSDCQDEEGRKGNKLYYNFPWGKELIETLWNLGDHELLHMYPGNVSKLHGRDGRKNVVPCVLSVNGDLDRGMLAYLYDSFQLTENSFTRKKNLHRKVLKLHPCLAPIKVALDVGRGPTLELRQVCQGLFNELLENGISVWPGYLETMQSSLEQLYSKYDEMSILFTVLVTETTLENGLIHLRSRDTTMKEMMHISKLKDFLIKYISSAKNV

B1: 24-nt/28-nt primer/template, ddC-terminated primer (crystal) (dsDNA)
DNA 1: CGAAAACGACGGCCAGTGCCATAC
DNA 2: CGAGGTATGGCACTGGCCGTCGTTTTCG
modifications: 2',3'-dideoxyC at primer 3' end (position 24 of strand 1)
  binding result: binds
